In patent publication US20140051106:
Substitutions are numbered along the chain they refer to. Names may count otherwise.

What was measured:
[1] = biological target: RPS23 peptide (peptide fragment of the RPS23 protein)
RPS23 20mer V05A = biological target: T1, RPS23 20mer V05A
T1 chain: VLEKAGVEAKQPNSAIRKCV

[2] = biological target: T2, S. Cerevisiae RPS23 peptide
T2 chain: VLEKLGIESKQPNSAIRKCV

[3] = biological target: T3, HIF-1α N-terminal oxygen dependent degradation domain (NODD) peptide, Q16665
T3 chain: DALTLLAPAAGDTIISLDF

RPS23 20mer K04A = biological target: T4, RPS23 20mer K04A
T4 chain: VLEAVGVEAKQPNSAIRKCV

RPS23 20mer G06A = biological target: T5, RPS23 20mer G06A
T5 chain: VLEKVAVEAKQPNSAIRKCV

RPS23 20mer K10A = biological target: T6, RPS23 20mer K10A
T6 chain: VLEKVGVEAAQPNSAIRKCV

[4] = biological target: histone fragment peptides
RPS23 20mer Q11A = biological target: T7, RPS23 20mer Q11A
T7 chain: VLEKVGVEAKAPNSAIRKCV

RPS23 20mer K18A = biological target: T8, RPS23 20mer K18A
T8 chain: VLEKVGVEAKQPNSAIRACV

RPS23 20mer P12I = biological target: T9, RPS23 20mer P12I
T9 chain: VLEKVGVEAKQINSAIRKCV

RPS23 16mer = biological target: T10, RPS23 16mer
T10 chain: EKVGVEAKQPNSAIRK

RPS23 20mer S14A = biological target: T11, RPS23 20mer S14A
T11 chain: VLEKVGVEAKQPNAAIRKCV

RPS23 20mer N13A = biological target: T12, RPS23 20mer N13A
T12 chain: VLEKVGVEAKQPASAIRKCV

S. Pombe RPS23 peptide = biological target: T13, S. Pombe RPS23 peptide
T13 chain: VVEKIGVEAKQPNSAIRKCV

RPS23 20mer I16A = biological target: T14, RPS23 20mer I16A
T14 chain: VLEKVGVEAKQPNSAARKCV

[5] = biological target: T15, HIF-1α C-terminal oxygen dependent degradation domain (CODD) peptide, Q16665
T15 chain: DLDLEMLAPYIPMDDDFQL

RPS23 20mer P12A = biological target: T16, RPS23 20mer P12A
T16 chain: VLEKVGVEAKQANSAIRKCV

[6] = biological target: T17, HIF-1α C-terminal transcriptional activation domain (CTAD) peptide, Q16665
T17 chain: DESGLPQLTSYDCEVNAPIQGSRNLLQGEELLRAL

RPS23 20mer E08A = biological target: T18, RPS23 20mer E08A
T18 chain: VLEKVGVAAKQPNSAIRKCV

RPS23 20mer C19A = biological target: T19, RPS23 20mer C19A
T19 chain: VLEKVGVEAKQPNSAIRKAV

RPS23 20mer V07A = biological target: T20, RPS23 20mer V07A
T20 chain: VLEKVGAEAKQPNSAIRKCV

B1: H155A mutant of full-length human OGFOD1 (protein)
chain: MGSSHHHHHHSSGLVPRGSHMASMNGKRPAEPGPARVGKKGKKEVMAEFSDAVTEETLKKQVAEAWSRRTPFSHEVIVMDMDPFLHCVIPNFIQSQDFLEGLQKELMNLDFHEKYNDLYKFQQSDDLKKRREPHISTLRKILFEDFRSWLSDISKIDLESTIDMSCAKYEFTDALLCADDELEGRRIAFILYLVPPWDRSMGGTLDLYSIDEHFQPKQIVKSLIPSWNKLVFFEVSPVSFHQVSEVLSEEKSRLSISGWFHGPSLTRPPNYFEPPIPRSPHIPQDHEILYDWINPTYLDMDYQVQIQEEFEESSEILLKEFLKPEKFTKVCEALEHGHVEWSSRGPPNKRFYEKAEESKLPEILKECMKLFRSEALFLLLSNFTGLKLHFLAPSEEDEMNDKKEAETTDITEEGTSHSPPEPENNQMAISNNSQQSNEQTDPEPEENETKKESSVPMCQGELRHWKTGHYTLIHDHSKAEFALDLILYCGCEGWEPEYGGFTSYIAKGEDEELLTVNPESNSLALVYRDRETLKFVKHINHRSLEQKKTFPNRTGFWDFSFIYYE
With B1 the “MALDI mass spectrometry, +16 mass shift” value [1] was “no such change was detectable with the H155A or D157A variants under standard assay conditions”.

B2: D157A mutant of full-length human OGFOD1 (protein)
chain: B1 chain with D180A
For B2, the “MALDI mass spectrometry, +16 mass shift” value [1] was “no such change was detectable with the H155A or D157A variants under standard assay conditions”.

B3: recombinant full-length human OGFOD1 (protein)
chain: MNGKRPAEPGPARVGKKGKKEVMAEFSDAVTEETLKKQVAEAWSRRTPFSHEVIVMDMDPFLHCVIPNFIQSQDFLEGLQKELMNLDFHEKYNDLYKFQQSDDLKKRREPHISTLRKILFEDFRSWLSDISKIDLESTIDMSCAKYEFTDALLCHDDELEGRRIAFILYLVPPWDRSMGGTLDLYSIDEHFQPKQIVKSLIPSWNKLVFFEVSPVSFHQVSEVLSEEKSRLSISGWFHGPSLTRPPNYFEPPIPRSPHIPQDHEILYDWINPTYLDMDYQVQIQEEFEESSEILLKEFLKPEKFTKVCEALEHGHVEWSSRGPPNKRFYEKAEESKLPEILKECMKLFRSEALFLLLSNFTGLKLHFLAPSEEDEMNDKKEAETTDITEEGTSHSPPEPENNQMAISNNSQQSNEQTDPEPEENETKKESSVPMCQGELRHWKTGHYTLIHDHSKAEFALDLILYCGCEGWEPEYGGFTSYIAKGEDEELLTVNPESNSLALVYRDRETLKFVKHINHRSLEQKKTFPNRTGFWDFSFIYYE
In the case of B3, the Hydroxylation (RPS23 20mer V05A) is reported as “++”, the Hydroxylation [2] is reported as “++” and the Hydroxylation (E. Coli S12 peptide) is reported as “-”. The “MALDI-TOF, +16 Da mass shift characteristic of hydroxylation” value [3] was “None of these potential substrates displayed evidence of a +16 Da mass shift characteristic of hydroxylation”, the Hydroxylation (RPS23 20mer K04A) was “++” and the Hydroxylation (RPS23 20mer G06A) was “++”. For the same protein, the 2OG turnover assay [1] was “Activity is also stimulated significantly in the presence of a peptide fragment of the RPS23 protein”, the “MALDI mass spectrometry, +16 mass shift” value [1] was “a clear +16 mass shift was observed upon incubation of RPS23 peptide with wild-type OGFOD1” and the Hydroxylation (RPS23 20mer K10A) was “++”. The “MALDI-TOF, demethylation” value [4] was “Neither did we find that OGFOD1 catalyzed N^ε-methyl-lysine or arginyl demethylation of histone fragment peptides”, the Hydroxylation (RPS23 20mer Q11A) was “++” and the Hydroxylation (RPS23 20mer K18A) was “++”. For the same protein, the Hydroxylation (RPS23 20mer P12I) was “-”, the Hydroxylation (RPS23 16mer) was “+” and the Hydroxylation (RPS23 20mer S14A) was “+”. For the same protein, the Hydroxylation (RPS23 20mer N13A) was “+”, the Hydroxylation (S. Pombe RPS23 peptide) was “++” and the Hydroxylation (RPS23 20mer I16A) was “++”. For the same protein, the “Hydroxylation (MALDI assay)” value [5] was “No hydroxylation of the PHD2 C-terminal oxygen-dependent degradation domain (CODD) substrate by OGFOD1 was observed under the same assay conditions”, the “MALDI-TOF, +16 Da mass shift characteristic of hydroxylation” value [5] was “None of these potential substrates displayed evidence of a +16 Da mass shift characteristic of hydroxylation” and the Hydroxylation (RPS23 20mer) was “++”. The “amino acid analysis of the enzymatic product” value (RPS23 20mer) was “The results clearly demonstrate the presence of trans-3-hydroxyproline in the enzymatic product”, the Hydroxylation (RPS23 20mer P12A) was “-” and the “MALDI-TOF, +16 Da mass shift characteristic of hydroxylation” value [6] was “None of these potential substrates displayed evidence of a +16 Da mass shift characteristic of hydroxylation”. The Hydroxylation (RPS23 20mer E08A) was “++”, the Hydroxylation (RPS23 20mer C19A) was “++” and the Hydroxylation (RPS23 20mer V07A) was “++”.
